Reference: the supplement of paper PMC9170038

Test system: K4 kissing-loop RNA reporter
Assay: apparent KD of K4 kissing-loop reporter; higher = weaker reporter binding
Conditions: Eterna round: R107
Method: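 RNA-MaP round R107: designed RNA switches with theophylline, tryptophan, arginine or FMN aptamers are transcribed on-chip within common flanks. They are titrated with a labelled K4 kissing-loop RNA reporter in RNA-MaP buffer (100 mM Tris pH 7.5, 80 mM KCl, 4 mM MgCl2), without ligand or with the indicated ligand. Median apparent KD per design.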

[1] = input ligand: theophylline 20 uM
[2] = input ligand: tryptophan 2.4 mM
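Also: bound reporter read as fluorescence of individual clusters on recovered sequencing chips by microscopy, with normalized cluster intensities fitted with a binding model.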

| Sequence | apparent KD of K4 kissing-loop reporter (input ligand: FMN 200 uM) [nM] | apparent KD of K4 kissing-loop reporter (input ligand: arginine 13.2 mM) [nM] | apparent KD of K4 kissing-loop reporter (input ligand: none) [nM] | apparent KD of K4 kissing-loop reporter [1] [nM] | apparent KD of K4 kissing-loop reporter [2] [nM] |
| --- | --- | --- | --- | --- | --- |
| UUUAUAAUGUCGGCCGCCACUGGAUUAAUAUUUGUAUAAUCUAGUUCAAAGUGAUGUUUUGAGUCCAGGACCGGGACAUUUGUUA [JR_ExcTryptoB_Sub003] | 570 | 490 | 582 | 509 | 407 |
| UGUACCGAGUCAGGAUAUGGUAUACCGGAAACGGACCAGUGAUGUUGGAGGCGAAAGCCAUAAAAUCCAGAAGGGACUUGGUACU [FmnBS 19 #SwitchBubble #StaticStem #DoubleMagnetSystem] | 223 | 569 | 614 | 893 | 411 |
| AAUAAAAUCACGGCCGCCACUGAUGCUAAUAUUGGCAGUGAUGUUGCUAUGUAUAUUUUAUUUGACAGGACCGGGUGAAUAUUUA [#24 K4 Tryptophan B Exclusion] | 224 | 198 | 245 | 263 | 137 |
| CCGGCCCGGCCGGAUACCAGUGCGCCGCAGGGAACGGCGGGCCCAGAGUGAUGUUCGGGACACCCUUGGCAGCCGCCUGGGUCGC [#2 Same State - Theophylline B Attempt #27 (HarryS)] | 286 | 123 | 231 | 225 | 245 |
| UGUACCGAGUCAGGAUAUGGCCGGAAACGGAAUAACCAGUGAUGUUGGAAUAAAUGGCGAAAGCCUCCAGAAGGGACUUGGUACU [FmnBS 18 #SwitchBubble #StaticStem #DoubleMagnetSystem] | 158 | 213 | 211 | 212 | 185 |
| GGAUAGGAUAGAGGAUAUGGUUUAUGCAGGAAUAACUUAUCGUGUAAAUCCAUAGGGAGUGAUGUUCCAGAAGGCUGUCCUAUCG [MatMod 13 - Jieux - Exclusion - FMN B] | 408 | 202 | 228 | 250 | 170 |
| AUAGGAGUGAUGUUCCUUAGUCUCUCCGAUACCAGUAUGGAAACAUACCCUUGGCAGCGGGAGACCGCAGAUUAGGAAACUAGUC [Theophylline A K4 5] | 178 | 179 | 185 | 205 | 172 |
| GCAGGAUGAGGAGGAGGAUGAAUUACUGAAGGAGCGCAUAUUUUUGCAGGUAGGUCGCGGUAAAGAAGUAUAGUGAUGUUAUAUA [SSArgA.K] | 333 | 255 | 267 | 568 | 456 |
| CCAUCGCUAUUCGAUACCAGUCAUAAAAUCUUUGGUUAAAUAAAGGAGUGAUGUUCCCAAGACCCUUGGCAGCGAAUAGUGAUGG [Theophylline B K4 7] | 229 | 227 | 217 | 266 | 213 |
| AAACAUUGGUCUGAUACCAGCUGAUCGGAAACGAUCUUGCUGGAGUGAUGUUCCAGGAAAAGCCCUUGGCAGCAGACCGAUGAAA [MAT - Same State Theophlline B - Mod of Eli - D24] | 938 | 513 | 1030 | 715 | 962 |
| AGAAGGAGACUUGCAACGACUCCUUCAGACUAGGAUAUCAGGAAACUGAGAAGGAGUCUACUUGCAGUGAUGUUGCAAGAAUAAU [[F]''-[K]'-[F]'-[F1]-[F2]-[K1]-[K2]_Design3] | 129 | 147 | 130 | 135 | 125 |
| CGUUUAUAGCAGGAUACCAGUACCCAUAAAGUACGUUAAUAGUAGAGUGAUGUUCUAAAGUACCCUUGGCAGCUUCCCGUGACUG [ExTheophylB.U] | 65.3 | 116 | 79.5 | 99.8 | 52.9 |
| UCGAUGGCCAGCGAUACCAGCCCAGUGAUGUUGGGCACAUGGUUGCGGGAAAUCCCAUUGGGCCCUUGGCAGCGCUUGCAUAGGU [Cezaat] | 197 | 155 | 162 | 219 | 171 |
| AAAUAUUCGAGUGAUGUUCGAUAAAUAUCAGAGGAUAUGCUUAAAAGCAGAAGGCUGUAUUUCUAUUUGUUAUGUAAUUUUAUAA [JR_SSFMNA_Sub021] | 125 | 160 | 135 | 154 | 91.4 |
| GGUAGCAUGGCGGCCGCCACUAAAACUGGAUCGGAAACGAUCCAGUAAUUUCGAGUGAUGUUCGUUAGGACCGGGCCAUGCUACC | 362 | 254 | 283 | 257 | 236 |
| GCCUACGUAGCAGGAUAUAGGUAAGUGAGUGAUGUUCAAGAGUUCUGGAGUGAUGUUCCAAUCUGACUAGAAGGGCUACGUAGGC | 58.4 | 45.2 | 79.3 | 57.3 | 54.1 |
| UGAUACCAGACUGAUACCAGCCACAGAGUCAAAGACUCUGAUAAAGGUACCAGUGAUGUUGGCCCUUGGCAGCAGUCUGGUAUCU [TheoBX 17 #SwitchBubble #StaticStem] | 158 | 126 | 143 | 151 | 141 |
| AGCUGCCGAAUAGAUACCAGUGUCUUUAGUGAUGUUUCAGAGCUGGCACGAUCAGAAGGUCACCCUUGGCAGCUAGUGCCAGCGU [theeternabot_exclusion_KL_Theo_B_39] | 340 | 145 | 261 | 344 | 267 |
